Measurements as given in the RNAGym collection of RNA variant scans (doi:10.1073/pnas.2313332121).

B1: TPR t1 (parent)
chain: GACCAAUCUGCCCUCAGAGCUCGAGAACAUCUUCGGAUGCAGAGGAGGCAGGCUUCGGUGGCGCGAUAGCGCCAACGUCCUCAACCUCCAAUGCAUCCCACCACAUGAUGAUGCCUGAAGAGCCUUGGUUUUUUG

Variants of: B1
Assay: polymerase ribozyme fitness, log enrichment relative to wild type (log ratio); higher = more active; in vitro selection for triplet polymerase activity
How it was run: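 Fitness is a logarithmic measure of how a genotype enriched relative to the wild type, with replicate averages weighted by inverse variance. The logarithm uses base 2, and enrichment came from Illumina sequencing of input and output libraries. Those libraries were PCR-built, transcribed mutants of each subunit of a heterodimeric triplet polymerase ribozyme, passed through one triplicate in vitro selection round that included frozen incubation at −7 °C, gel excision of extended constructs and streptavidin-bead capture. Genotypes were kept only if they had ≥10 input reads and ≥1 read per output.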

Row | Variant | polymerase ribozyme fitness (log ratio)
1 | C12G A16U G48A C82A | -3.19
2 | C12G G120C A121G | -1.12
3 | C12A C80U G120U U132A | 1.64
4 | C12G C49G U54A | -0.423
5 | C12A G113U | -2.09
6 | C12A G113C | -2.64
7 | C12A U81C | -1.73
8 | C12A A46C G60A C82G | -1.19
9 | C11U C73G C102A A103U | -5.8
10 | C11U U21C G120U | 0.267
11 | C12G G57A G61U C80A | -2.05
12 | C12U A43U | -1.51
13 | C12U A50U C73U U125A | -0.873
14 | C11U G71U G93A C104U | -1.26
15 | C11U C70U | -0.753
16 | C11U C70G | -2.97
17 | C12A U126C | -2.01
18 | C11U C88U C104A A121G | 0.139
19 | C12G C31U C49U G51U C70U C101A U109G | -6.92
20 | C12A C123G | 1.19
21 | C12G C13A A50C A119U G127A | -1.75
22 | C12G C34A C56U | -2.05
23 | C12A G19A A46C C73U G117C | -5.99
24 | C12A G35U C40U G45A C53G G63C G117C G127U | -6.85

Row | Variant | polymerase ribozyme fitness (log ratio)
25 | C11U G52U A83U G110C C123U | -5.57
26 | C12A A84U | -1.96
27 | C12A U14G G71U | -2.39
28 | C12A C13U G61U U106A | -0.644
29 | C12G C73A C88U G122A | -1.14
30 | C12A G57U G61U C89G | -5.96
31 | C12G G35A G48U G57U C80U | -4.47
32 | C11U G39A | -1.08
33 | C11U G61A | 0.135
34 | C12A G71A | -1.07
35 | C12U A27G G42A A90G G93U A95G | -2.39
36 | C12G G17U G57C C62A C115G U129C U132C | -3.27
37 | C12G C28U A66C C72U A84C | -3.81
38 | C11U C15A C40U C73A C123G | -0.889
39 | C11U G45A G51A C76G A91C C114G | -5.71
40 | C12A G19A C20A C53U C89A | -3.61
41 | C12A C89U | -1.16
42 | C12G U14G G57A G113U | -7.24
43 | C11U G77U A111G U112C G122A | -0.084
44 | C11U C15U G45U C64U U78A C80U C82U A111U | -8.07
45 | C12A G48C U116G | -5.7
46 | C12A A105G C124U | -0.99
47 | C12G A41G C72U C102U | -2.31
48 | C11U C49G U92A C123G | -3.91

Row | Variant | polymerase ribozyme fitness (log ratio)
49 | C12A G39U | -1.1
50 | C11U G45A U78A C86A U106A U125A | -6.24
51 | C12G C89A | -1.41
52 | C12G C115G | -2.46
53 | C12G A37C A41U C79A | -3.13
54 | C12G C72A | -0.123
55 | C11U U32C C70U C98U C124G | -1.48
56 | C11U G58A G71U A90G U116C | -2.7
57 | C11U G60A | -0.708
58 | C12A C97A U131A | -4.52
59 | C12A G61A C64U | -4
60 | C11U U78C | -0.264
61 | C12G C28U C53A | -2.29
62 | C12A C85U | -1.04
63 | C12A C49A C88A G110U | -1.74
64 | C12A C20A G61A C88U U116C | -4.6
65 | C11U C94A C102A | -3.51
66 | C12U A27C C49A | -2.06
67 | C12A G19A G60U | -2.57
68 | C11U G61A C94G | -0.792
69 | C12A U32G C53A C89U C114A | -8.31
70 | C12G C40U C49U G65C C114G | -6.07
71 | C11U C15A G45U C72A U129A | -5.41
72 | C11U C76A | -0.763

Row | Variant | polymerase ribozyme fitness (log ratio)
73 | C11U C76U | -0.741
74 | C12G C94U G110C G127C | -4.48
75 | C12G C40A | -1.14
76 | C12A C20U A26C G48A C49A A121G U133A | -5.75
77 | C12A C99G G110U | -6.29
78 | C12G C20A C49A | -2.49
79 | C12A A41U G77C A83G C85A U125A | -4.14
80 | C12U A18C | -1.45
81 | C11U C79G U92G | -6.09
82 | C12U A29G C73G U92C C94A | -5.22
83 | C12A C40U C56A U96A G117A | -5.83
84 | C12A G61U C70U U81G | -4.98
85 | C11U U30G G120C | -5.71
86 | C11U C64U | -0.331
87 | C12A U78C | -0.581
88 | C11U G17A G57C C89U G120C | -1.86
89 | C11U G19U U54A G71A A121C G135U | -4.33
90 | C12A G23A C82G | -7.42
91 | C12G C62U | 0.0184
92 | C12A C97A | -4.79
93 | C12A G48U G71A | -2.04
94 | C12G U32A A37U | -3.65
95 | C12A A37C A46C C88U | -2.57
96 | C11U C28U G120A C124G | 0.0586

Row | Variant | polymerase ribozyme fitness (log ratio)
97 | C11U C20G A27G C56U | -5.19
98 | C12A C115A | -0.819
99 | C11U U33G | -5.16
100 | C12A G19C A91U U126G | -5.51
101 | C12G C53A G71U G107C U112C | -4.39
102 | C12A C56A C70U C102A C104U | -2.58
103 | C12G A27G C64U C104U | -2.48
104 | C11U G17U | -4.34
105 | C11U C15G G47A C86A A90G G117U G120C | -0.496
106 | C12A G117U U131C | -4.17
107 | C11U C56U | -0.0444
108 | C12G C15G A46U A74G U78A C114A | -6.73
109 | C12A U116A C124A | -0.089
110 | C11U G42A C73U C104A U109A U125G | -7.2
111 | C12A U14A C28U C85U | -3.93
112 | C11U U32A A46C G48A C72G U112G | -5.51
113 | C12G C88A | 0.489
114 | C12G C70A C82U A105U U106A U109G | -4.43
115 | C12A C64U C115U G120A C123A | -1.16
116 | C12G A74U | -0.266
117 | C12A G69A | -2.89
118 | C12A G69U | -0.288
119 | C12G A108G | -1.2
120 | C12A C62U | -0.927

Row | Variant | polymerase ribozyme fitness (log ratio)
121 | C12U A18C C34U G120C | -4.87
122 | C12A G47A C102G A111C A118C U129C | -7.59
123 | C12G C73A C79A C86U | -0.241
124 | C12U A46C G52U | -0.969
125 | C12U A29G G71U G128A | -3.03
126 | C12G G69U G93U C94G U96A C97U U109A | -5.02
127 | C12A C98U G110C U131A | -6.2
128 | C11U G63U U78C C101A | -4.53
129 | C11U G39U C86G | -2.92
130 | C12A G117C A121G | -3.52
131 | C11U U33A C85G C101U | -5.74
132 | C11U C70U C102U | -3.34
133 | C12A C72U | -0.97
134 | C12A C72G | -0.22
135 | C12G A29U C62G | -2.88
136 | C11U U14G G19U A29G C31U U32C C72G A111U U129A | -7.29
137 | C12A C53U A83C U106G G113U | -6.76
138 | C12G G19U C72U | -6.54
139 | C12G G60A C85G G117A U131A | -1.29
140 | C12U A50C C64U A66G U81C | -4.8
141 | C11U U55G | -2.15
142 | C12A A29U C49U A74G C123A U131A | -1.45
143 | C11U C53G A91U | -1.86
144 | C11U C73G C124U | 0.969

Row | Variant | polymerase ribozyme fitness (log ratio)
145 | C11U C101A | -1.8
146 | C11U C101G | -2.02
147 | C12G U14C G17U C22G C49G G117C U130A | -6.43
148 | C12A A18C | -1.6
149 | C12G U55A C70U G113C | -3.9
150 | C12A C22G | -2.6
151 | C11U C20A G57A C62U U87A | -4.19
152 | C12G A16G C53A C80U | -5.01
153 | C11U G60A U131G | -2.06
154 | C12G C20U G36A G71A C80U C82A C88A G120U U126C | -5.21
155 | C11U G71A U133G | -1.59
156 | C12U A46C G47U C86A A108G | -1.87
157 | C11U C85U | -1.93
158 | C12G C31U G61A | -5.13
159 | C12A G47U G60A U78A | -2.01
160 | C11U U106G | -1.1
161 | C12G A29U C49G C82U C115U U133A | -2.06
162 | C12G U14G G107U C114U G120U C123U U133A | -4.14
163 | C12G C85G | -1.08
164 | C11U C40G C64U | -1.72
165 | C12A C34A G45A G71C | -6.58
166 | C12G G47A G48C A68G A103G A105C U106A G117U G120C | -7.36
167 | C12G G48C C49A U55C G61A A95G G110A | -2.17
